Source: patent US20260242448A1 (INSTITUTE OF MICROBIOLOGY CHINESE ACADEMY OF SCIENCES, published 2026)

Tests used:
[1] = target: S protein of the SARS-CoV-2 Delta strain on pseudo-virus (SARS-CoV-2 Delta strain); assay: cell-based or functional assay
[2] = target: T1, S protein of the SARS-CoV-2 XBB strain on pseudo-virus (SARS-CoV-2 XBB strain); assay: cell-based or functional assay
[3] = target: T2, S protein of the SARS-CoV-2 XBB.1.5 strain on pseudo-virus (SARS-CoV-2 XBB.1.5 strain); assay: cell-based or functional assay
[4] = target: T3, S protein of the SARS-CoV-2 BQ.1.1 strain on pseudo-virus (SARS-CoV-2 BQ.1.1 strain); assay: cell-based or functional assay
[5] = target: T4, S protein of the SARS-CoV-2 BQ.1 strain on pseudo-virus (SARS-CoV-2 BQ.1 strain); assay: cell-based or functional assay
[6] = target: T5, S protein of the SARS-CoV-2 BA.1 strain on pseudo-virus (SARS-CoV-2 BA.1 strain); assay: cell-based or functional assay
[7] = target: T6, S protein of the SARS-CoV-2 BA.4/5 strains on pseudo-virus (SARS-CoV-2 BA.4/5 strain); assay: cell-based or functional assay
[8] = target: T7, S protein of the SARS-CoV-2 BA.2.75 strain on pseudo-virus (SARS-CoV-2 BA.2.75 strain); assay: cell-based or functional assay
[9] = target: T8, S protein of the SARS-CoV-2 BF.7 strain on pseudo-virus (SARS-CoV-2 BF.7 strain); assay: cell-based or functional assay
[10] = target: T9, RBD of the S protein of the BA.1.1 strain (SARS-CoV-2 BA.1.1 strain); assay: ELISA on plate-coated RBD (1 µg/mL), HRP anti-human Fc detection, OD450
T9 construct: domain: RBD; also called BA.1.1 RBD

[11] = target: T10, SARS-CoV-2 (BA.5) Spike RBD (SARS-CoV-2 BA.5 strain); assay: as above
T10 construct: domain: RBD; also called BA.5 RBD

[12] = target: S protein of the SARS-CoV-2 XBB.1.16 strain on pseudo-virus (SARS-CoV-2 XBB.1.16 strain); assay: cell-based or functional assay
[13] = target: T1, S protein of the SARS-CoV-2 XBB strain …; assay: cell-based or functional assay; remark: listed apart in the source
[14] = target: T2, S protein of the SARS-CoV-2 XBB.1.5 …; assay: cell-based or functional assay; remark: listed apart in the source
[15] = target: T3, S protein of the SARS-CoV-2 BQ.1.1 …; assay: cell-based or functional assay; remark: listed apart in the source
[16] = target: T4, S protein of the SARS-CoV-2 BQ.1 strain …; assay: cell-based or functional assay; remark: listed apart in the source
[17] = target: T5, S protein of the SARS-CoV-2 BA.1 strain …; assay: cell-based or functional assay; remark: listed apart in the source
[18] = target: T6, S protein of the SARS-CoV-2 BA.4/5 …; assay: cell-based or functional assay; remark: listed apart in the source
[19] = target: S protein of the SARS-CoV-2 BA.1.1 strain on pseudo-virus (SARS-CoV-2 BA.1.1 strain); assay: cell-based or functional assay
[20] = target: S protein of the SARS-CoV-2 BA.2 strain on pseudo-virus (SARS-CoV-2 BA.2 strain); assay: cell-based or functional assay
[21] = target: S protein of the SARS-CoV-2 BA.3 strain on pseudo-virus (SARS-CoV-2 BA.3 strain); assay: cell-based or functional assay
[22] = target: T7, S protein of the SARS-CoV-2 BA.2.75 …; assay: cell-based or functional assay; remark: listed apart in the source
[23] = target: T8, S protein of the SARS-CoV-2 BF.7 strain …; assay: cell-based or functional assay; remark: listed apart in the source
[24] = target: T11, RBD of the S protein of the BA.2.12.1 strain (SARS-CoV-2 BA.2.12.1 strain); assay: ELISA on plate-coated RBD (1 µg/mL), HRP anti-human Fc detection, OD450
T11 construct: domain: RBD; also called BA.2.12.1 RBD

| Binder | Neutralization activity (IC50) against pseudo-virus [1] [µg/mL] | Neutralization activity (IC50) against pseudo-virus [2] [µg/mL] | Neutralization activity (IC50) against pseudo-virus [3] [µg/mL] | Neutralization activity (IC50) against pseudo-virus [4] [µg/mL] | Neutralization activity (IC50) against pseudo-virus [5] [µg/mL] | Neutralization activity (IC50) against pseudo-virus [6] [µg/mL] | Neutralization activity (IC50) against pseudo-virus [7] [µg/mL] | Neutralization activity (IC50) against pseudo-virus [8] [µg/mL] | Neutralization activity (IC50) against pseudo-virus [9] [µg/mL] | EC50 [10] [nM] | EC50 [11] [nM] | Neutralization Effects (IC50) against SARS-CoV-2 pseudo-viruses [12] [µg/mL] | Neutralization Effects (IC50) against SARS-CoV-2 pseudo-viruses [13] [µg/mL] | Neutralization Effects (IC50) against SARS-CoV-2 pseudo-viruses [14] [µg/mL] | Neutralization Effects (IC50) against SARS-CoV-2 pseudo-viruses [15] [µg/mL] | Neutralization Effects (IC50) against SARS-CoV-2 pseudo-viruses [16] [µg/mL] | Neutralization Effects (IC50) against SARS-CoV-2 pseudo-viruses [17] [µg/mL] | Neutralization Effects (IC50) against SARS-CoV-2 pseudo-viruses [18] [µg/mL] | Neutralization Effects (IC50) against SARS-CoV-2 pseudo-viruses [19] [µg/mL] | Neutralization Effects (IC50) against SARS-CoV-2 pseudo-viruses [20] [µg/mL] | also measured |
| --- | --- | --- | --- | --- | --- | --- | --- | --- | --- | --- | --- | --- | --- | --- | --- | --- | --- | --- | --- | --- | --- |
| monoclonal antibody CoV56 (antibody, V domains shown, also called monoclonal antibody 56; 56IgG) VH: EVQLVESGGGVVQPGGSLRLSCAVSGFTFDDYAMHWVRQAPGKGLDWVSLISGDGSYTYYADSVKGRFTISRDSSKNSLYLQMNSLRTEDTALYYCAKAQTPTLWWLQDAFDIWGQGTMVTVSS VL: not shown | > 2 | > 2 | > 2 | > 2 | > 2 | > 2 | > 2 | > 2 | > 2 | 0.0454 | 0.167 | 21.7 | 15.9 | 11.8 | 15.9 | 19.6 | 14.8 | 7.53 | 10.8 | 8.32 | Neutralization Effects (IC50) against SARS-CoV-2 pseudo-viruses [21]: 18.5 µg/mL; Neutralization Effects (IC50) against SARS-CoV-2 pseudo-viruses [22]: 58.8 µg/mL; Neutralization Effects (IC50) against SARS-CoV-2 pseudo-viruses [23]: 11.7 µg/mL; EC50 [24]: 0.0839 nM |
| monoclonal antibody L4.65 (antibody, V domains shown, also called monoclonal antibody 65; 65IgG) VH: QITLKESGPTLVKPTQTLTLTCTFSGFSLSTSGVGVAWIRQPPGKALEWLALIYWDNDKRSSPSLNNRLTITKDTSKNQVVLTMTNMDPEDTATYYCAHFFSHYDSSNYYYGSWFDPWGQGTLVTVSS VL: EIVLTQSPGTLSLSPGERATLSCRASQSFDSRYLGWYQQKSGQAPRLLIYGASSRATGIPDRFSGSGSGTDFTLTISRLEPEDFAVYYCQQFGDSPFTFGQGTKLEIKR | 0.00252 | 0.0214 | 0.0541 | > 2 | > 2 | 0.00135 | 0.00138 | 0.0112 | 0.00212 | 0.00592 | 0.105 | 0.0103 | 0.00335 | 0.0137 | 4.58 | 2.09 | 0.000394 | 0.000377 | 0.00028 | 0.00039 | Neutralization Effects (IC50) against SARS-CoV-2 pseudo-viruses [21]: 0.00044 µg/mL; Neutralization Effects (IC50) against SARS-CoV-2 pseudo-viruses [22]: 0.00194 µg/mL; Neutralization Effects (IC50) against SARS-CoV-2 pseudo-viruses [23]: 0.000446 µg/mL; EC50 [24]: 0.0641 nM |
